# Reference: patent US20240209100A1
# Where two headings read alike, the source gives them in different places.
# Columns and labels:
# Assay in all cases: cell-based or functional assay
# [1] = target: T1, IL-18 receptor (IL-18Rα/IL-18Rβ) overexpressed on HEK-Blue IL-18 cells (Homo sapiens (Human)) (UniProt Q13478)
# T1 sequence 1: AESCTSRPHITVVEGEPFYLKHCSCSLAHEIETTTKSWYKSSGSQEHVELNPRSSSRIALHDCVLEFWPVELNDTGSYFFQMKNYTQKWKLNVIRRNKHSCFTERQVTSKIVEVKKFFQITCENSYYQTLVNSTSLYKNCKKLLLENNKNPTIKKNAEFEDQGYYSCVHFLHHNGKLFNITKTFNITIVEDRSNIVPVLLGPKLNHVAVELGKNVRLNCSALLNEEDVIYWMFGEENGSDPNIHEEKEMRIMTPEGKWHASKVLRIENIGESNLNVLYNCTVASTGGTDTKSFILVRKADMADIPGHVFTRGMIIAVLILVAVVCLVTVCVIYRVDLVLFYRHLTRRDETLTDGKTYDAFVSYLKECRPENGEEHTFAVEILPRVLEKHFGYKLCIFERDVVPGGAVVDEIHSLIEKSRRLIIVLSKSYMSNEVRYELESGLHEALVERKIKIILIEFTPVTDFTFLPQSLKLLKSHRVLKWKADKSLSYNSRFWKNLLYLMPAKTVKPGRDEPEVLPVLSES
# T1 sequence 2: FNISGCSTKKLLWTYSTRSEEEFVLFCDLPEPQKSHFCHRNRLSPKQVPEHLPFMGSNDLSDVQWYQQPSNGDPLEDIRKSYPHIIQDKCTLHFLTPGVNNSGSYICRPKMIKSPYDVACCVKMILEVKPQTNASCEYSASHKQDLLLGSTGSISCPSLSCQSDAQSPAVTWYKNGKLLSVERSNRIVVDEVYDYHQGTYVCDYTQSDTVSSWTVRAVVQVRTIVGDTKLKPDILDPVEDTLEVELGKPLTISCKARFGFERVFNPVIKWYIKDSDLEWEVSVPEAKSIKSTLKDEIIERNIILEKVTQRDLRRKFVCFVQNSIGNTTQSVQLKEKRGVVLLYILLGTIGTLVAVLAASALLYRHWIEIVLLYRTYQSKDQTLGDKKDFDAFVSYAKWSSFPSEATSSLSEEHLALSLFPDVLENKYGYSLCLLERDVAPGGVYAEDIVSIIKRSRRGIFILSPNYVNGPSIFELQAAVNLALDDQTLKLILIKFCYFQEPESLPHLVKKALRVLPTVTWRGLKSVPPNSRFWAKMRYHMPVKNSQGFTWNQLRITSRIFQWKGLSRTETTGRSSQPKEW
# [2] = target: T2, IL-18 receptor (IL-18Rα/IL-18Rβ) on human PBMCs (human) (UniProt Q13478)
# T2 sequence 1: T1 sequence 1
# T2 sequence 2: T1 sequence 2
# [3] = target: T1, IL-18 receptor (IL-18Rα/IL-18Rβ) overexpressed on HEK-Blue IL-18 cells (Homo sapiens (Human)); remark: listed apart in the source
# [4] = target: T1, IL-18 receptor (IL-18Rα/IL-18Rβ) overexpressed on HEK-Blue IL-18 cells (Homo sapiens (Human)); remark: listed apart in the source
# [5] = target: T1, IL-18 receptor (IL-18Rα/IL-18Rβ) overexpressed on HEK-Blue IL-18 cells (Homo sapiens (Human)); remark: listed apart in the source
# [6] = target: T1, IL-18 receptor (IL-18Rα/IL-18Rβ) overexpressed on HEK-Blue IL-18 cells (Homo sapiens (Human)); remark: listed apart in the source
# Sequence of Human IL-18 (Q14116 37-193 limits assumed): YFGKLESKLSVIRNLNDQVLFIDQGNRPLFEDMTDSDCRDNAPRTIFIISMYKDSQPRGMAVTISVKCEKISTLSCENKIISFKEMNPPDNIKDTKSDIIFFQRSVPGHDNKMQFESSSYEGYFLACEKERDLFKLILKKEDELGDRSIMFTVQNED
substance,measurement,setting,value
Human IL-18 (from UniProt Q14116 37-193) (ligand),HEK-Blue IL-18: Abs 405 (Ave of 2),[1],2.6 Abs
same,"HEK-Blue IL-18: Abs405 (Emax), Average (hu IL-18)",[1],2.72 Abs
same,"HEK-Blue IL-18: EC50 (M), Average (hu IL-18)",[1],7.14e-14 M
same,"HEK-Blue IL-18: Emax (Abs at 630 nm), Human IL-18 (1 ng/ml) (Abs at 630 nm)",[1],3.25
same,HEK-Blue IL-18: Fold over background,[1],22 fold
same,"PBMC IFNγ induction (24 h, with IL-12): EC50, Average",[2],6.8
same,"PBMC IFNγ induction (24 h, with IL-12): EC50, donor 1",[2],1.9
same,"PBMC IFNγ induction (24 h, with IL-12): EC50, donor 2",[2],1.7
same,"PBMC IFNγ induction (24 h, with IL-12): EC50, donor 3",[2],1.4
same,"PBMC IFNγ induction (24 h, with IL-12): EC50, donor 4",[2],4.7
same,"PBMC IFNγ induction (24 h, with IL-12): EC50, donor 5",[2],1.9
same,"PBMC IFNγ induction (24 h, with IL-12): EC50, donor 6",[2],29.4
same,"PBMC: calculated maximum induction of IFNγ after 24 hours, donor 1",[2],42000
same,"PBMC: calculated maximum induction of IFNγ after 24 hours, donor 2",[2],5300
same,"PBMC: calculated maximum induction of IFNγ after 24 hours, donor 3",[2],89000
same,"PBMC: calculated maximum induction of IFNγ after 24 hours, donor 4",[2],69000
same,"PBMC: calculated maximum induction of IFNγ after 24 hours, donor 5",[2],150000
same,"PBMC: calculated maximum induction of IFNγ after 24 hours, donor 6",[2],28000
same,HEK-Blue IL-18: Abs 405 at 100 nM,[3],2.6 Abs
same,HEK-Blue IL-18: Fold over background,[3],14.4 fold
same,HEK-Blue IL-18: Abs405,[4],3.1 Abs
same,HEK-Blue IL-18: Fold over background,[4],13.6 fold
same,HEK-Blue IL-18: Abs 405 at 100 nM,[5],3 Abs
same,HEK-Blue IL-18: Fold over background,[5],13.2 fold
same,HEK-Blue IL-18: Abs405,[6],3.08 Abs
same,HEK-Blue IL-18: Fold over background,[6],26 fold
